Source: patent US20220017615A1 (SHANGHAI PHARMAEXPLORER, published 2022)

B1: 95E2D10 (antibody, V domains shown)
VH: QIQLQQSGPELVKPGASMKISCKASGYPFTDYYIHWVKQKPGQGLEWIGWIYPGSGNNKYNEKFKGKATLTVDTSPSTVYMQLSSLTSEDTAVYFCARRAGNYFDYWGQGTTLTVSS
VL: NIVMTQSPKSMSRSVGERVTLSCRASENVRTYVFWYQQKPGLSPKLLIYGASNRYIGVPDRFTGSGSATDFTLTISSVQAEDLADYHCGQSYSYPLTFGAGTKLELK
notes: Murine hybridoma antibody purified on protein G
B2: 54G8G6 (antibody, V domains shown)
VH: QVQLQQPGADLVKPGASVKMSCKASGYTFTSYWIIWVKQRPGQGLEWIGDINPGRGSPNYNEKFKRKATLTVDTSSSTAYMQLSSLTSEDSAVYYCVRGGLRRFDHWGQGTLVTVSA
VL: ENVLTQSPAIMSASPGEKVTMTCRASSSVSSSYLHWYQQKSGASPKLWIYSTSTLASGVPARFSGSGSGTSYSLTISSVEAEDAATYYCQQYSGYPYTFGGGTKLEIK
notes: as for B1

Assays:
[1] = target: T1, His-tagged CD47 recombinant protein, CD47-His (human, UniProt Q08722 19-141, limits assumed); assay: ELISA on coated CD47-His; Ab 0.107 nM
T1 construct: it is not restated for CD47-His; also called human CD47-His protein; antigen CD47-His; not shown: His tag

[2] = target: T2, biotin-labeled CD47 extracellular domain protein (CD47-ECD) (UniProt Q08722 19-139, limits assumed, biotin-labeled (sites not given)); assay: blocking ELISA, biotin-CD47-ECD on coated SIRPα-hFc; Ab 200 nM
T2 construct: extracellular domain; also called CD47 protein

[3] = target: T3, cynomolgus CD47, on CHOK1-cCD47 stable cell line (cynomolgus); assay: FACS CHOK1-cCD47; Ab 40 nM
T3 construct: whole, on cells; check before use; also called CHOK1/cynoCD47; monkey-derived CD47
Experimental: (§1) The CHOK1-hCD47 stable cell lines and CHOK1-cCD47 stable cell lines were expanded to 90% confluence in a T-75 cell culture flask, the medium was exhausted, washed twice with HBSS buffer (Hanks balanced salt solution) (purchased from Invitrogen), and then treated and collected with enzyme-free cell dissociation solution (Versene solution: purchased from Life technology). The cells were washed twice with HBSS buffer. After counted, the cells were diluted with HBSS to 2×10⁶ cells per ml, added with 1% goat serum blocking solution, wherein the percentage was the mass percantage, incubated on ice for 30 minutes, and then washed twice with HBSS by centrifugation. […] The plate was washed 3 times with FACS buffer by centrifugation, added with 100 μl fixative solution [4% (v/v) Paraformaldehyde] per well to suspend the cells. 10 minutes later, it was washed twice with FACS buffer by centrifugation. The cells were suspended with 100 microliters of FACS buffer, FACS (FACS Calibur, purchased from BD) was used for detection and the results were analyzed.

[4] = target: T3, cynomolgus CD47, on CHOK1-cCD47 stable …; assay: FACS CHOK1-cCD47; Ab 8 nM
Experimental: as §1

[5] = target: T2, biotin-labeled CD47 extracellular …; assay: blocking ELISA, biotin-CD47-ECD on coated SIRPα-hFc; Ab 0 nM
Experimental: (§2) The plate was sealed with plastic film and incubated at 4° C. overnight. The plate was washed twice with plate washing solution [PBS+0.01% (v/v) Tween20] on the next day, and blocking solution [PBS+0.01% (v/v) Tween20 +1% (w/w) BSA] was added to block it at room temperature for 2 hours. […] After incubation at 37° C. for 2 hours, the plate was washed three times with the plate washing solution [PBS+0.01% (v/v) Tween 20]. HRP (horseradish peroxidase) labeled avidin diluent (purchased from Sigma) was added as 100 microliters per well, and after the plate was incubated for 2 hours at 37° C., it was washed 3 times with washing solution [PBS+0.01% (v/v) Tween 20]. 100 μl of TMB substrate was added to each well. After incubated at room temperature for 30 minutes, the plate was added with 100 μl of stop solution (1.0N HCl) to each well.

[6] = target: T1, His-tagged CD47 recombinant protein, …; assay: ELISA on coated CD47-His; Ab 0.004 nM
Experimental: (§3) The plate was sealed with plastic film and incubated at 4° C. overnight. The plate was washed twice with plate washing solution [PBS+0.01% (v/v) Tween20] the next day, and blocking solution [PBS+0.01% (v/v) Tween20 +1% (w/w) BSA] was added to block it at room temperature for 2 hours. […] After incubation at 37° C. for 2 hours, the plates were washed three times with plate washing solution [PBS+0.01% (v/v) Tween 20]. HRP (horseradish peroxidase) labeled secondary antibody (purchased from Sigma) was added, incubated at 37° C. for 2 hours, and then washed three times with plate washing solution [PBS+0.01% (v/v) Tween 20]. 1000 of TMB substrate was added to each well. After incubated at room temperature for 30 minutes, the plate was added with 100 μl of stop solution (1.0N HCl) to each well.

[7] = target: T3, cynomolgus CD47, on CHOK1-cCD47 stable …; assay: FACS CHOK1-cCD47; Ab 0.0128 nM
Experimental: as §1

[8] = target: T4, human CD47, full length, on transfected cells (human, UniProt Q08722 19-323); assay: FACS CHOK1-hCD47; Ab 1.6 nM
T4 construct: whole, on cells; also called CHOK1-hCD47
Experimental: as §1

[9] = target: T2, biotin-labeled CD47 extracellular …; assay: blocking ELISA, biotin-CD47-ECD on coated SIRPα-hFc; Ab 40 nM
Experimental: as §2

[10] = target: T1, His-tagged CD47 recombinant protein, …; assay: ELISA on coated CD47-His; Ab 13.333 nM
Experimental: as §3

[11] = target: T2, biotin-labeled CD47 extracellular …; assay: blocking ELISA, biotin-CD47-ECD on coated SIRPα-hFc; Ab 0.064 nM
[12] = target: T2, biotin-labeled CD47 extracellular …; assay: blocking ELISA, biotin-CD47-ECD on coated SIRPα-hFc; Ab 8 nM
Experimental: as §2

[13] = target: T3, cynomolgus CD47, on CHOK1-cCD47 stable …; assay: FACS CHOK1-cCD47; Ab 1.6 nM
[14] = target: T2, biotin-labeled CD47 extracellular …; assay: blocking ELISA, biotin-CD47-ECD on coated SIRPα-hFc; Ab 1.6 nM
Experimental: as §2

[15] = target: T1, His-tagged CD47 recombinant protein, …; assay: ELISA on coated CD47-His; Ab 0.021 nM
Experimental: as §3

[16] = target: T1, His-tagged CD47 recombinant protein, …; assay: ELISA on coated CD47-His; Ab 2.667 nM
Experimental: as §3

[17] = target: T4, human CD47, full length, on transfected …; assay: FACS CHOK1-hCD47; Ab 0 nM (background)
Experimental: as §1

[18] = target: T4, human CD47, full length, on transfected …; assay: FACS CHOK1-hCD47; Ab 0.064 nM
Experimental: as §1

[19] = target: T4, human CD47, full length, on transfected …; assay: FACS CHOK1-hCD47; Ab 8 nM
[20] = target: T1, His-tagged CD47 recombinant protein, …; assay: ELISA on coated CD47-His; Ab 0.533 nM
[21] = target: T4, human CD47, full length, on transfected …; assay: FACS CHOK1-hCD47; Ab 0.32 nM
Experimental: as §1

[22] = target: T3, cynomolgus CD47, on CHOK1-cCD47 stable …; assay: FACS CHOK1-cCD47; Ab 200 nM
[23] = target: T3, cynomolgus CD47, on CHOK1-cCD47 stable …; assay: FACS CHOK1-cCD47; Ab 0 nM (background)
Experimental: as §1

[24] = target: T2, biotin-labeled CD47 extracellular …; assay: blocking ELISA, biotin-CD47-ECD on coated SIRPα-hFc; Ab 0.32 nM
Experimental: as §2

[25] = target: T4, human CD47, full length, on transfected …; assay: FACS CHOK1-hCD47; Ab 200 nM
Experimental: as §1

[26] = target: T1, His-tagged CD47 recombinant protein, …; assay: ELISA on coated CD47-His; Ab 0 nM (background)
Experimental: as §3

[27] = target: T3, cynomolgus CD47, on CHOK1-cCD47 stable …; assay: FACS CHOK1-cCD47; Ab 0.064 nM
Experimental: as §1

[28] = target: T4, human CD47, full length, on transfected …; assay: FACS CHOK1-hCD47; Ab 0.0128 nM
Experimental: as §1

[29] = target: T3, cynomolgus CD47, on CHOK1-cCD47 stable …; assay: FACS CHOK1-cCD47; Ab 0.32 nM
Experimental: as §1

[30] = target: T1, His-tagged CD47 recombinant protein, …; assay: ELISA on coated CD47-His; Ab 66.667 nM
Experimental: as §3

[31] = target: T4, human CD47, full length, on transfected …; assay: FACS CHOK1-hCD47; Ab 40 nM
Experimental: as §1

[32] = target: T2, biotin-labeled CD47 extracellular …; assay: blocking ELISA, biotin-CD47-ECD on coated SIRPα-hFc; Ab 0.0128 nM
Experimental: as §2

Binder	OD450 nm [1]	OD450 nm of CD47 bound to SIRPα [2]	mean fluorescence intensity [3]	mean fluorescence intensity [4]	OD450 nm of CD47 bound to SIRPα [5]	OD450 nm [6]	mean fluorescence intensity [7]	mean fluorescence intensity [8]	OD450 nm of CD47 bound to SIRPα [9]	OD450 nm [10]	OD450 nm of CD47 bound to SIRPα [11]	OD450 nm of CD47 bound to SIRPα [12]	mean fluorescence intensity [13]	OD450 nm of CD47 bound to SIRPα [14]	OD450 nm [15]	OD450 nm [16]	mean fluorescence intensity [17]	mean fluorescence intensity [18]	mean fluorescence intensity [19]	OD450 nm [20]	further results
B1	2.07	0.06	17500	21400	2.94	0.17	223	6140	0.06	2.98	2.84	0.09	7990	0.52	0.58	3.01	23.3	408	12300	2.96	mean fluorescence intensity [21]: 2490; mean fluorescence intensity [22]: 21200; mean fluorescence intensity [23]: 76; OD450 nm of CD47 bound to SIRPα [24]: 2; mean fluorescence intensity [25]: 15800; OD450 nm [26]: 0.05; mean fluorescence intensity [27]: 734; mean fluorescence intensity [28]: 221; mean fluorescence intensity [29]: 3040; OD450 nm [30]: 2.93; mean fluorescence intensity [31]: 17300; OD450 nm of CD47 bound to SIRPα [32]: 2.96
B2	2.1	0.07	21200	21300	2.9	0.18	278	6180	0.06	2.94	1.76	0.09	9570	0.13	0.62	3	23.1	561	13500	2.99	mean fluorescence intensity [21]: 1940; mean fluorescence intensity [22]: 17200; mean fluorescence intensity [23]: 76.8; OD450 nm of CD47 bound to SIRPα [24]: 0.31; mean fluorescence intensity [25]: 16700; OD450 nm [26]: 0.05; mean fluorescence intensity [27]: 908; mean fluorescence intensity [28]: 216; mean fluorescence intensity [29]: 3250; OD450 nm [30]: 2.86; mean fluorescence intensity [31]: 17700; OD450 nm of CD47 bound to SIRPα [32]: 2.89
